Measured values published in the supplement of paper PMC10567573.

B1: SMOC2 (parent)
chain: PALETQPQGDEEDIASRYPTLWTE

Variants of: B1
Test: protein stability index of a GFP-peptide fusion (GPS, HEK-293T) (PSI 1-6); higher = more stable
Conditions: c terminus: a fixed tail appended
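Further: lentivirally expressed fusions sorted by FACS into six bins by GFP to DsRed ratio, PSI derived from sequencing read proportions per bin multiplied by bin number.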

Protein stability index: each site, then its substitutions
Y18: G 4.61; S 4.65; L 4.42; Q 4.39; M 4.59; K 3.34; V 4.07; C 4.32; T 4.67; W 4.6; P 4.14; H 4.87; F 4.25; D 5.89; I 4.18; E 4.74; A 4.64; N 4.24; R 4.53
T5: A 4.8; P 4.58; Q 4.72; L 4.45; R 4.93; W 4.51; I 4.45; N 4.54; D 5.12; M 5.01; E 4.99; G 4.3; Y 4.65; F 4.58; C 4.61; V 3.77; H 4.64; K 3.88; S 4.3
D10: Q 4.41; G 3.68; W 3.98; A 4.36; V 3.69; S 4.44; H 3.56; F 3.39; C 3.36; M 3.05; L 4.33; R 3.86; P 4.6; N 4.49; K 3.53; I 3.68; Y 3.51; T 4.14; E 4.16
P7: L 4.6; T 4.54; V 4.06; Y 4.28; A 4.07; E 4.67; M 4.62; D 4.67; C 4.46; W 4.02; R 3.81; I 5.37; S 4.68; K 3.38; N 4.48; F 4.08; G 4.5; Q 5.02; H 4.29
Q8: F 4.48; C 5.05; T 4.86; D 5.29; K 3.9; M 4.87; I 5.02; L 4.05; V 5.17; E 5.1; Y 3.89; S 4.74; G 3.6; R 4.6; A 4.88; H 4.96; N 5.23; P 4.33; W 4.16
A15: N 4.36; W 4.14; H 4.11; D 4.33; S 3.88; Y 4.53; G 4.63; Q 4.42; C 4.1; E 4.29; R 4.53; L 4.76; I 4.57; T 4.36; M 4.67; V 3.87; K 3.78; F 4.34
E4: Q 4.9; D 4.91; S 4.32; R 3.77; M 3.95; K 4.31; T 4.46; F 3.64; N 4.31; H 3.77; L 4.22; W 3.52; C 3.96; V 4.11; G 4.07; A 4.42; Y 2.74; I 3.21
G9: N 4.78; I 4.08; S 5.09; C 5.16; D 4.63; R 4.34; P 4.88; E 5.22; V 4.87; H 4.71; F 4.89; A 4.92; W 4.62; T 4.97; M 4.76; K 4.55; Y 4.74; L 4.84
A2: G 5.22; N 5.04; Q 4.54; S 4.88; C 4.4; D 5.13; R 3.7; T 4.11; M 4.6; Y 4.61; K 4.13; E 4.48; W 3.88; F 4.53; L 5.17; I 4.07; V 4.67; H 4.74
P1: V 4.24; K 4.04; Y 3.1; L 4; Q 3.91; W 3.84; I 4.09; S 4.78; R 4.74; T 4.58; H 4.32; M 4.25; N 4.08; G 4.33
D13: R 4.14; L 3.84; S 3.97; E 3.76; V 3.93; Y 3.59; H 3.71; P 3.63; F 4.14; A 4.35; T 4.23; I 3.65; K 2.67; C 3.9; G 3.85; N 4.23; W 4.68; Q 4.21; M 4.09
S16: R 4.3; V 5.14; A 4.5; F 4.61; G 5.21; C 4.63; K 4.18; N 4.56; E 4.94; T 4.39; M 5.09; P 5.27; Q 5.17; L 4.81; I 4.52; W 3.99; D 4.76; H 3.96; Y 4.31
E11: W 3.96; R 3.98; V 4.24; Y 4.02; D 4.21; H 3.41; K 3.92; F 3.95; A 3.79; M 3.59; L 3.84; T 4.18; N 4.26; G 4.04; C 4.43; I 3.36; Q 4.22; P 4.82; S 4.38
L3: K 4.27; I 5.31; M 4.83; D 5.37; H 4.36; C 5.01; T 4.9; S 5.03; F 4.85; N 4.23; Y 4.81; P 5.08; G 4.33; V 4.87; E 5.59; Q 4.97; W 4.04; R 4.44
P19: E 5.49; C 5.15; F 4.87; A 5.73; D 4.97
E12: F 4.2; I 3.68; P 4.33; K 3.56; W 3.39; V 3.75; N 4.11; A 3.94; C 4.12; T 4.34; Y 3.75; L 3.68; M 3.7; R 3.93; H 3.74; D 4.41; S 4.46; Q 4.42; G 2.63
Q6: R 4.34; W 4.15; N 4.3; C 4.7; A 4.44; V 3.97; D 4.92; G 5.04; P 4.55; E 4.39; I 4.77; M 4.13; F 4.25; T 4.7; Y 4.66; H 4.73; L 4; K 4.26
I14: S 4.64; M 3.95; D 5.77; Q 4.4; Y 4.39; E 4.79; G 4.53; W 3.97; V 4.19; T 5.06; C 4.14; A 4.79; P 4.99; K 3.96; H 4.65; F 4.42; N 5.01
R17: Q 4.78; A 4.81; M 4.94; H 4.38; W 4.2; F 3.82; T 4.29; I 4.73; P 4.53; V 4.36; E 4.5; G 4.71; K 4.35; N 4.23; D 4.94; L 4.72; S 4.26; Y 3.69; C 3.2
